These results are taken from patent US20250320281A1.

Common to all, as to assay: cell-based or functional assay
The target of test [1] is HIV-1 Env of pseudovirus MGRM-G-011 (HIV-1, clade G isolate MGRM-G-011).
Test [2] has as its target HIV-1 envelope glycoprotein (Env) of isolate MGRM-A-003, clade A (HIV-1).
The target in test [3] is HIV-1 92UG005 envelope glycoprotein (Env) on pseudovirus (HIV-1).
Test [4] deals with HIV-1 Env of pseudovirus MGRM-G-015 (HIV-1, clade G isolate MGRM-G-015).
The target in test [5] is HIV-1 Env of pseudovirus MGRM-F1-008 (HIV-1).
Test [6] deals with HIV-1 Env of isolate 93IN905 (HIV-1).
The target of test [7] is HIV-1 Env of isolate MGRM-D-024 (clade D pseudovirus) (HIV-1).
For test [8], the target named is HIV-1 envelope glycoprotein (Env) of isolate 92RW026, clade A (HIV-1).
Test [9] concerns the target HIV-1 Env of pseudovirus MGRM-AG-012 (clade CRF_AG) (HIV-1).
The target in test [10] is HIV-1 Env of isolate MGRM-D-019 (clade D pseudovirus) (HIV-1).
The target of test [11] is HIV-1 Env of isolate MGRM-Chronic-B-003, clade B, on pseudovirus (HIV-1).
Test [12] has as its target HIV-1 Env of pseudovirus MGRM-G-014 (HIV-1, clade G isolate MGRM-G-014).
For test [13], the target named is HIV-1 envelope glycoprotein (Env) of isolate MGRM-A-005, clade A (HIV-1).
Test [14] has as its target HIV-1 Env of pseudovirus MGRM-F1-017 (HIV-1).
Test [15] concerns the target HIV-1 Env of pseudovirus MGRM-Chronic-B-018 (HIV-1).
Test [16] deals with HIV-1 Env of isolate QH0692.42 (subtype B) (HIV-1).
Test [17] addresses HIV-1 Env of isolate MGRM-AG-009 (subtype AG) (HIV-1).
Test [18] concerns the target HIV-1 Env of isolate MGRM-C-002 (subtype C) (HIV-1).
Test [19] deals with HIV-1 Env of isolate MGRM-AG-011 (subtype AG) (HIV-1).
Test [20] has as its target HIV-1 MGRM-AG-005 Env (pseudovirus) (HIV-1).
The target of test [21] is HIV-1 Env of isolate MG RM-D-021 (HIV-1).
Test [22] has as its target HIV-1 envelope glycoprotein (Env) of isolate MGRM-C-022 (HIV-1).
The target of test [23] is HIV-1 Env of isolate 94UG103 (HIV-1).
Test [24] deals with HIV-1 Env of isolate MGRM-AG-008 (subtype AG) (HIV-1).
Test [25] addresses HIV-1 94UG103 Env (pseudovirus, clade A) (HIV-1).
For test [26], the target named is HIV-1 envelope glycoprotein (Env) of isolate MGRM-C-015 (HIV-1).
Test [27] concerns the target HIV-1 APV13 Env (pseudovirus) (HIV-1).
Test [28] has as its target HIV-1 Env of isolate JRFL (subtype B) (HIV-1).
Test [29] has as its target HIV-1 Env of pseudovirus isolate MGRM-G-025 (HIV-1).
Test [30] concerns the target HIV-1 envelope glycoprotein (Env) of isolate MGRM-C-028 (HIV-1).
Test [31] concerns the target HIV-1 Env of isolate MGRM-AG-003 (subtype AG) (HIV-1).
The target in test [32] is HIV-1 Env of pseudovirus isolate MGRM-G-024 (HIV-1).
The target in test [33] is HIV-1 Env of isolate MG RM-D-008 (HIV-1).
Test [34] addresses HIV-1 Env of isolate MGRM-A-006 (HIV-1).
In test [35] the target is HIV-1 Env of isolate MGRM-AG-012 (subtype AG) (HIV-1).
In test [36] the target is HIV-1 Env of isolate MGRM-AE-001 (subtype AE) (HIV-1).
Test [37] has as its target HIV-1 Env of isolate 92TH021 (subtype AE) (HIV-1).
Test [38] deals with HIV-1 Env of isolate VLGCA1 (subtype A) (HIV-1).
In test [39] the target is HIV-1 Env of isolate 92WR021 (HIV-1).

Sequence of 5329_C19 (PGT-136) (antibody) (VH): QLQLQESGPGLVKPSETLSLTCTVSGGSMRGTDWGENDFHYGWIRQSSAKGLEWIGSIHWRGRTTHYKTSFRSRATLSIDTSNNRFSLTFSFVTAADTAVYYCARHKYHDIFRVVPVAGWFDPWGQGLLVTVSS
Sequence of 5329_C19 (PGT-136) (antibody) (VL): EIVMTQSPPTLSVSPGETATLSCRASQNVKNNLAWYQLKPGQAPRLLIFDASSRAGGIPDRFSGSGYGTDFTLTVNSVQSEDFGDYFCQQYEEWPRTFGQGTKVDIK
Sequence of 1443_C16 (PG16) (TCN-116) (antibody) (VH): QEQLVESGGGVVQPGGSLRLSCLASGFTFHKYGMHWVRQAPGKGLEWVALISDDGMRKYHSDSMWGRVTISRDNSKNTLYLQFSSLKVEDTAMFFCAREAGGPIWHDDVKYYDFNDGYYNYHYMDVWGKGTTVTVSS
Sequence of 1443_C16 (PG16) (TCN-116) (antibody) (VL): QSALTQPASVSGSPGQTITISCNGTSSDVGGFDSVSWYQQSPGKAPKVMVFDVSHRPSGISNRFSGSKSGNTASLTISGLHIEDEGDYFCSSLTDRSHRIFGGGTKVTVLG

1443_C16 (PG16) (TCN-116) (antibody): the IC50 (µg/ml), pseudovirus neutralization in [1] is 0.04 µg/mL; in test [2] it was 2.65 µg/mL; in [4] it was 5.33 µg/mL; in test [5] it was above 50 µg/mL; in test [7], 0.02 µg/mL; in test [8] it was 0.03 µg/mL. Besides, the IC50 (µg/ml), pseudovirus neutralization is 0.01 µg/mL in test [10]; 0.19 µg/mL in test [11]; 6.98 µg/mL in [12]; 0.09 µg/mL in test [13]; above 50 µg/mL in [14]; 0.7 µg/mL in [15]. In [3], this substance had an IC50, pseudovirus neutralization above 50 µg/mL. Moreover, the half-maximal inhibitory concentration (IC50) in test [6] was 0.25 µg/mL; in test [9], 25.1 µg/mL.
2G12 (antibody): the IC50 (µg/ml), pseudovirus neutralization in [1] is above 50 µg/mL; in test [2], above 50 µg/mL; in [4], above 50 µg/mL; in test [5], above 50 µg/mL; in test [7], above 50 µg/mL; in test [8], 17.2 µg/mL. For the same substance, the IC50 (µg/ml), pseudovirus neutralization in test [10] is above 50 µg/mL; in test [11] it was 0.06 µg/mL; in test [12], above 50 µg/mL; in [13] it was above 50 µg/mL; in [14], above 50 µg/mL; in test [15] it was above 50 µg/mL. The substance further registered an IC50, pseudovirus neutralization in test [3] above 50 µg/mL. For the same substance, the IC50 in test [6] is above 50 µg/mL; in [9], 1.94 µg/mL.
Consider 4E10 (antibody), for which the IC50 (µg/ml), pseudovirus neutralization in test [1] was determined as 1.44 µg/mL; in [2], 5.94 µg/mL; in test [4], 1.07 µg/mL; in [5] it was 2.75 µg/mL; in [7], 3.6 µg/mL; in [8], 12.9 µg/mL. Further, the IC50 (µg/ml), pseudovirus neutralization in test [10] turned out to be 0.04 µg/mL; in test [11], 3.5 µg/mL; in [12] it was 13.7 µg/mL; in test [13] it was 4.09 µg/mL; in test [14], 4.92 µg/mL; in test [15] it was 23.2 µg/mL. Further, the IC50, pseudovirus neutralization in test [3] is 8.86 µg/mL. Also, the results for the IC50 in test [6] and in test [9] were 1.26 µg/mL and 0.86 µg/mL, respectively.
As for b12 (antibody), the IC50 (µg/ml), pseudovirus neutralization was above 50 µg/mL in test [1]; above 50 µg/mL in [2]; above 50 µg/mL in test [4]; above 50 µg/mL in test [5]; 5.92 µg/mL in test [7]; above 50 µg/mL in test [8]. For the same substance, the IC50 (µg/ml), pseudovirus neutralization in test [10] was above 50 µg/mL; in test [11], above 50 µg/mL; in test [12], above 50 µg/mL; in test [13], 3.64 µg/mL; in [14], above 50 µg/mL; in [15] it was 0.66 µg/mL. This substance came in with an IC50, pseudovirus neutralization in test [3] above 50 µg/mL. In addition, the half-inhibitory concentration (IC50) came out at 21.4 µg/mL in test [6] and 10.4 µg/mL in test [9].
In the case of 5147_N06 (PGT-130) (antibody), the IC50 neutralization in [16] is above 50 µg/mL; in test [18] it was above 50 µg/mL; in [25], 0.635 µg/mL; in test [28] it was 0.046 µg/mL. Besides, the IC50 (µg/mL), pseudovirus neutralization in test [17] is 9.46 µg/mL; in test [19], above 50 µg/mL; in test [21] it was 0.156 µg/mL; in test [22], 0.127 µg/mL; in [24] it was above 50 µg/mL; in test [26], 0.344 µg/mL. The IC50 (µg/mL), pseudovirus neutralization in [29] is 8.45 µg/mL; in test [30], above 50 µg/mL; in test [31], 0.041 µg/mL; in test [32] it was 5.84 µg/mL; in test [33] it was above 50 µg/mL; in test [35] it was above 50 µg/mL. Moreover, the IC50 (µg/mL), pseudovirus neutralization in test [36] is 1 µg/mL; in test [37] it was 0.009 µg/mL; in test [38] it was above 50 µg/mL. Moreover, the results for the Neutralization by PGT-130, IC50 in test [20] and in [27] were 0.947 µg/mL and 0.0345 µg/mL, respectively. Further, the Neutralization by PGT-130, IC80 in [20] was above 10 µg/mL; in [27], 0.573 µg/mL. For the same substance, the figures for the Neutralization by PGT-130, IC90 in test [20] and in [27] were above 10 µg/mL and 2.88 µg/mL, respectively. For the same substance, the Neutralization by PGT-130, IC95 in [20] and in test [27] was above 10 µg/mL in each case. Moreover, the neutralization IC50 (pseudovirus) in test [20] worked out at 0.947 µg/mL; in test [27], 0.0345 µg/mL. Besides, the IC50 in test [23] is 1.4 µg/mL; in test [34], above 50 µg/mL; in test [39], 4 ng/mL.
As to 2F5 (antibody), the IC50 (µg/ml), pseudovirus neutralization in test [1] is 1.16 µg/mL; in test [2] it was 7.37 µg/mL; in [4], 0.43 µg/mL; in [5], 1.61 µg/mL; in test [7], above 50 µg/mL; in test [8], 8.63 µg/mL. Also, the IC50 (µg/ml), pseudovirus neutralization is 0.14 µg/mL in test [10]; 1 µg/mL in [11]; 9.65 µg/mL in test [12]; 5.7 µg/mL in test [13]; above 50 µg/mL in [14]; 10.8 µg/mL in [15]. Moreover, the IC50, pseudovirus neutralization in test [3] worked out at 11.8 µg/mL. For the same substance, the IC50 was above 50 µg/mL in [6] and 0.33 µg/mL in [9].
In the case of 5329_C19 (PGT-136) (antibody), the IC50 neutralization in [16] is above 50 µg/mL; in test [18], above 50 µg/mL; in test [25], above 10 µg/mL; in test [28] it was above 50 µg/mL. Moreover, the IC50 (µg/mL), pseudovirus neutralization in test [17] was above 50 µg/mL; in [19], above 50 µg/mL; in [21] it was above 50 µg/mL; in test [22] it was above 50 µg/mL; in [24], above 50 µg/mL; in test [26] it was 11.1 µg/mL. The IC50 (µg/mL), pseudovirus neutralization in test [29] is above 50 µg/mL; in test [30] it was 33.7 µg/mL; in test [31] it was above 50 µg/mL; in test [32], 0.152 µg/mL; in test [33], above 50 µg/mL; in [35], above 50 µg/mL. Besides, the IC50 (µg/mL), pseudovirus neutralization in test [36], in test [37] and in test [38] was above 50 µg/mL each time. Besides, the IC50 (neutralizing activity, pseudovirus) in test [20] and in [27] was above 10 µg/mL throughout. In addition, the IC50 in test [23] was above 50 µg/mL; in test [34], above 50 µg/mL; in test [39], above 50000 ng/mL.

By IC50 is commonly meant the concentration that inhibits the measured activity by half.
